Numbering of substitutions follows the chain as printed.
What was measured:
Test in all cases: cell_activity
Conditions in all cases: PAM TTAAA; HEK293T
Nuclease M L92R L92R = system: T1, Nuclease M L92R L92R
T1 sequence: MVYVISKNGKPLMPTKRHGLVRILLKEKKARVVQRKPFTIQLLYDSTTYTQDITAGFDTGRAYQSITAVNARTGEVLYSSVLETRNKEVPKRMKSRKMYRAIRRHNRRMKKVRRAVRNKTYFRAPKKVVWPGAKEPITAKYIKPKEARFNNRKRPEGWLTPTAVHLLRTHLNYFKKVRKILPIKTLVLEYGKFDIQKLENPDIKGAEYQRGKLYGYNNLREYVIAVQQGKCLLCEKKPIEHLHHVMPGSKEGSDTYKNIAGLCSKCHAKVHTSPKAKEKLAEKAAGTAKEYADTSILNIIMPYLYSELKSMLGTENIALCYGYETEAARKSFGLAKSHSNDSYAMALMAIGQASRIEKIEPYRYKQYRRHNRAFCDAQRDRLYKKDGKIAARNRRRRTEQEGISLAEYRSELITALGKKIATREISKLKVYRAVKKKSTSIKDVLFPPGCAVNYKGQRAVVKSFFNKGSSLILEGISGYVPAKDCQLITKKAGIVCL

Nuclease M E83R E83R = system: T2, Nuclease M E83R E83R
T2 sequence: T1 sequence with E83R, R92L

Nuclease M P481R P481R = system: T3, Nuclease M P481R P481R
T3 sequence: T1 sequence with R92L, P481R

Nuclease M N371R N371R = system: T4, Nuclease M N371R N371R
T4 sequence: T1 sequence with R92L, N371R

Nuclease M A373R A373R = system: T5, Nuclease M A373R A373R
T5 sequence: T1 sequence with R92L, A373R

Nuclease M E88R E88R = system: T6, Nuclease M E88R E88R
T6 sequence: T1 sequence with E88R, R92L

Sequence: GAGCCUGGUCCAUGGAGAGUGUCAACUACCCCCGUCUAAAGACGGAGGCAUGAGGUUUCGUAACCAAGUGUUGUACCUGCGGGUACAGUAGUUGAACAGGCGGCGAUGCGGCUGGGCACUCCAGGAUGCCACUCCCAGUCCCGGACACUGCCGACGAGCCGCAUCAAGCCGGGGGAGACCAACCGGCUAACGAUAGCCGAGCAAUUACCUAAAAAGAGGUGCAAAGGAAAUGGUAU / GAGCCTGGTCCATGGAGAGT / ACTCTCCATGGACCAGGCTC [Nuclease M VEGFA-T5 guide ; Nuclease M VEGFA-T5 target]
- binding signal (fold vs Nuclease M) (Nuclease M L92R L92R): 1.81
- binding signal (fold vs Nuclease M) (Nuclease M E83R E83R): 1.71
- binding signal (fold vs Nuclease M) (Nuclease M P481R P481R): 1.6
- binding signal (fold vs Nuclease M) (Nuclease M N371R N371R): 1.65
- binding signal (fold vs Nuclease M) (Nuclease M A373R A373R): 1.53
- binding signal (fold vs Nuclease M) (Nuclease M E88R E88R): 2.09

From patent US20260275311, “CRISPR NUCLEASE POLYPEPTIDES AND GENE EDITING SYSTEMS COMPRISING SUCH” (ARBOR BIOTECHNOLOGIES, INC., published 2026)
